From publication PMC8152684 come the findings set out here.

Substrate in the series: NC(=O)C[C@H](N)C(=O)O
As to the kind of experiment: purified protein. The note with it: free enzyme in solution, 50 mM Tris-HCl pH 8.6, 37 °C.

B1: L-asparaginase (Asp) (Escherichia coli K-12) (protein)
chain: LPNITILATGGTIAGGGDSATKSNYTVGKVGVENLVNAVPQLKDIANVKGEQVVNIGSQDMNDNVWLTLAKKINTDCDKTDGFVITHGTDTMEETAYFLDLTVKCDKPVVMVGAMRPSTSMSADGPFNLYNAVVTAADKASANRGVLVVMNDTVLDGRDVTKTNTTDVATFKSVNYGPLGYIHNGKIDYQRTPARKHTSDTPFDVSKLNELPKVGIVYNYANASDLPAKALVDAGYDGIVSAGVGNGNLYKSVFDTLATAAKTGTAVVRSSRVPTGATTQDAEVDDAKYGFVASGTLNPQKARVLLQLALTQTKDPQQIQQIFNQY
As usually defined, the Km is the substrate concentration at which the rate is half of its maximum. On to B1, for which the Km was 140 µM.
